Measurements taken from FireProtDB.

B1: Ribonuclease HI, P0A7Y4 (parent)
chain: MLKQVEIFTDGSCLGNPGPGGYGAILRYRGREKTFSAGYTRTTNNRMELMAAIVALEALKEHCEVILSTDSQYVRQGITQWIHNWKKRGWKTADKKPVKNVDLWQRLDAALGQHQIKWEWVKGHAGHPENERCDELARAAAMNPTLEDTGYQVEV

Variants of: B1
Settings: Escherichia coli (strain K12); pH 3; 50.1 °C; Thermal; CD; glycine-HCl 10 mM; NaCl 0.1 M; reversible: yes; structure 2RN2; whole UniProt chain shown

In order of rising “ddG of mutation (higher = less stable)” value:
1. Q76L  -0.24 kcal/mol
2. E119V R41C  -0.09 kcal/mol
3. Q80L K117R  0.03 kcal/mol
4. E119V K60R  0.06 kcal/mol
5. E135K  1.1 kcal/mol

Same assay, conditions: Escherichia coli (strain K12); pH 3; Thermal; CD; glycine-HCl 10 mM; NaCl 0.1 M; reversible: yes; structure 2RN2; whole UniProt chain shown

In order of falling Tm:
1. Q76L  50.9 °C
2. E119V R41C  50.4 °C
3. Q80L K117R  50 °C
4. E119V K60R  49.9 °C
5. E135K  46.4 °C

In order of falling “change of melting temperature, mutant - wild type (higher = more stable)” value (“change of melting temperature, mutant” for short):
1. Q76L  0.8 °C
2. E119V R41C  0.3 °C
3. Q80L K117R  -0.1 °C
4. E119V K60R  -0.2 °C
5. E135K  -3.7 °C

In order of falling “unfolding enthalpy (van 't Hoff)” value:
1. Q76L  110 kcal/mol
2. E119V K60R  109 kcal/mol
3. Q80L K117R  104 kcal/mol
4. E119V R41C  101 kcal/mol
5. E135K  99 kcal/mol

Same assay, conditions: Escherichia coli (strain K12); pH 5.5; 52.7 °C; Thermal; CD; Sodium acetate 20 mM; NaCl 0.1 M; reversible: yes; structure 2RN2; whole UniProt chain shown

In order of rising “ddG of mutation (higher = less stable)” value:
1. E119V K60R  -0.63 kcal/mol
2. E135K  0.22 kcal/mol

Same assay, conditions: Escherichia coli (strain K12); pH 5.5; Thermal; CD; Sodium acetate 20 mM; NaCl 0.1 M; reversible: yes; structure 2RN2; whole UniProt chain shown

In order of falling Tm:
1. E119V R41C  56.9 °C
2. E119V K60R  55 °C
3. Q76L  53.8 °C
4. Q80L K117R  53.5 °C
5. E135K  51.9 °C

In order of falling “change of melting temperature, mutant” value:
1. E119V R41C  4.2 °C
2. E119V K60R  2.3 °C
3. Q76L  1.1 °C
4. Q80L K117R  0.8 °C
5. E135K  -0.8 °C

In order of rising “unfolding enthalpy (van 't Hoff)” value:
1. Q76L  81.2 kcal/mol
2. Q80L K117R  83.1 kcal/mol
3. E135K  89.9 kcal/mol
4. E119V K60R  98.6 kcal/mol
5. E119V R41C  107 kcal/mol

Same assay, conditions: Escherichia coli (strain K12); pH 3; 49.8 °C; Thermal; CD; glycine-HCl 10 mM; reversible: yes; structure 2RN2; whole UniProt chain shown

In order of rising “ddG of mutation (higher = less stable)” value:
1. D94R K95G  -1.1 kcal/mol
2. Q113P  0.2 kcal/mol
3. Y28F R29H G30A R31H  0.7 kcal/mol

Same assay, conditions: Escherichia coli (strain K12); pH 3; Thermal; CD; glycine-HCl 10 mM; reversible: yes; structure 2RN2; whole UniProt chain shown

In order of rising Tm:
1. Y28F R29H G30A R31H  47.5 °C
2. Q113P  49.2 °C
3. D94R K95G  53.4 °C

In order of falling “change of melting temperature, mutant” value:
1. D94R K95G  3.6 °C
2. Q113P  -0.6 °C
3. Y28F R29H G30A R31H  -2.3 °C

In order of falling “unfolding enthalpy (van 't Hoff)” value:
1. D94R K95G  127 kcal/mol
2. Q113P  100 kcal/mol
3. Y28F R29H G30A R31H  92.5 kcal/mol

Same assay, conditions: Escherichia coli (strain K12); pH 5.5; 52 °C; Thermal; CD; glycine-HCl 10 mM; reversible: yes; structure 2RN2; whole UniProt chain shown

With Y28F R29H G30A R31H the “ddG of mutation (higher = less stable)” value was 0.9 kcal/mol.

Same assay, conditions: Escherichia coli (strain K12); pH 5.5; Thermal; CD; glycine-HCl 10 mM; reversible: yes; structure 2RN2; whole UniProt chain shown

In order of rising Tm:
1. Y28F R29H G30A R31H  48.8 °C
2. D94R K95G  57.5 °C

In order of falling “change of melting temperature, mutant” value:
1. D94R K95G  5.5 °C
2. Y28F R29H G30A R31H  -3.2 °C

In order of falling “unfolding enthalpy (van 't Hoff)” value:
1. D94R K95G  102 kcal/mol
2. Y28F R29H G30A R31H  80.5 kcal/mol

Same assay, conditions: Escherichia coli (strain K12); pH 5.5; 49.8 °C; Thermal; CD; glycine-HCl 10 mM; reversible: yes; structure 2RN2; whole UniProt chain shown

With D94R K95G the “ddG of mutation (higher = less stable)” value was -1.5 kcal/mol.

Same assay, conditions: Escherichia coli (strain K12); pH 5.5; 52 °C; Thermal; CD; Sodium acetate 20 mM; reversible: yes; structure 2RN2; whole UniProt chain shown

With Q113P the “ddG of mutation (higher = less stable)” value was 0.6 kcal/mol.

Same assay, conditions: Escherichia coli (strain K12); pH 5.5; Thermal; CD; Sodium acetate 20 mM; reversible: yes; structure 2RN2; whole UniProt chain shown

For Q113P, the Tm was 49.9 °C.

In the case of Q113P, the “change of melting temperature, mutant” value is reported as -2.1 °C.

For Q113P, the “unfolding enthalpy (van 't Hoff)” value was 81 kcal/mol.
